Tests used:
HeLa Kyoto [1] = assay: solubility change mitosis vs G1/S (difference of NP-40 vs SDS log2 ratios) (log2 ratio difference); higher = more soluble in mitosis
HeLa Kyoto [2] = assay: solubility in G1/S (NP-40 vs SDS abundance) (log2 ratio); higher = more soluble; conditions: cell cycle stage: G1/S
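Wherever solubility change mitosis vs G1/S (difference of NP-40 vs SDS log2 ratios) is given: synchronized HeLa Kyoto cells (double thymidine block for G1/S, nocodazole release for mitosis), protein amounts in NP-40 versus SDS lysates quantified by mass spectrometry, three biological replicates.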
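Wherever solubility in G1/S (NP-40 vs SDS abundance) is given: HeLa Kyoto cells arrested at G1/S by double thymidine block, proteins quantified by TMT10plex mass spectrometry in mild NP-40 versus SDS extracts, three biological replicates.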

Substance: MDSPWDELALAFSRTSMFPFFDIAHYLVSVMAVKRQPGAAALAWKNPISSWFTAMLHCFGGGILSCLLLAEPPLKFLANHTNILLASSIWYITFFCPHDLVSQGYSYLPVQLLASGMKEVTRTWKIVGGVTHANSYYKNGWIVMIAIGWARGAGGTIITNFERLVKGDWKPEGDEWLKMSYPAKVTLLGSVIFTFQHTQHLAISKHNLMFLYTIFIVATKITMMTTQTSTMTFAPFEDTLSWMLFGWQQPFSSCEKKSEAKSPSNGVGSLASKPVDVASDNVKKKHTKKNE [TMEM38B]
- solubility change mitosis (log2) (HeLa Kyoto [1]): -0.17
- solubility in G1/S (log2) (HeLa Kyoto [2]): -0.0322

Substance: MSKTFLRPKVSSTKVTDWVDPSFDDFLECSGVSTITATSLGVNNSSHRRKNGPSTLESSRFPARKRGNLSSLEQIYGLENSKEYLSENEPWVDKYKPETQHELAVHKKKIEEVETWLKAQVLERQPKQGGSILLITGPPGCGKTTTLKILSKEHGIQVQEWINPVLPDFQKDDFKGMFNTESSFHMFPYQSQIAVFKEFLLRATKYNKLQMLGDDLRTDKKIILVEDLPNQFYRDSHTLHEVLRKYVRIGRCPLIFIISDSLSGDNNQRLLFPKEIQEECSISNISFNPVAPTIMMKFLNRIVTIEANKNGGKITVPDKTSLELLCQGCSGDIRSAINSLQFSSSKGENNLRPRKKGMSLKSDAVLSKSKRRKKPDRVFENQEVQAIGGKDVSLFLFRALGKILYCKRASLTELDSPRLPSHLSEYERDTLLVEPEEVVEMSHMPGDLFNLYLHQNYIDFFMEIDDIVRASEFLSFADILSGDWNTRSLLREYSTSIATRGVMHSNKARGYAHCQGGGSSFRPLHKPQWFLINKKYRENCLAAKALFPDFCLPALCLQTQLLPYLALLTIPMRNQAQISFIQDIGRLPLKRHFGRLKMEALTDREHGMIDPDSGDEAQLNGGHSAEESLGEPTQATVPETWSLPLSQNSASELPASQPQPFSAQGDMEENIIIEDYESDGT [RAD17]
- solubility change mitosis (log2) (HeLa Kyoto [1]): 0.000111
- solubility in G1/S (log2) (HeLa Kyoto [2]): -0.0641

Substance: CAPN15
- solubility change mitosis (log2) (HeLa Kyoto [1]): -0.0119
- solubility in G1/S (log2) (HeLa Kyoto [2]): -0.427

Substance: MGSLSGLRLAAGSCFRLCERDVSSSLRLTRSSDLKRINGFCTKPQESPGAPSRTYNRVPLHKPTDWQKKILIWSGRFKKEDEIPETVSLEMLDAAKNKMRVKISYLMIALTVVGCIFMVIEGKKAAQRHETLTSLNLEKKARLKEEAAMKAKTE [FAM162A]
- solubility change mitosis (log2) (HeLa Kyoto [1]): 0.327
- solubility in G1/S (log2) (HeLa Kyoto [2]): 0.312

Substance: MILTKAQYDEIAQCLVSVPPTRQSLRKLKQRFPSQSQATLLSIFSQEYQKHIKRTHAKHHTSEAIESYYQRYLNGVVKNGAAPVLLDLANEVDYAPSLMARLILERFLQEHEETPPSKSIINSMLRDPSQIPDGVLANQVYQCIVNDCCYGPLVDCIKHAIGHEHEVLLRDLLLEKNLSFLDEDQLRAKGYDKTPDFILQVPVAVEGHIIHWIESKASFGDECSHHAYLHDQFWSYWNRFGPGLVIYWYGFIQELDCNRERGILLKACFPTNIVTLCHSIA [C15ORF41]
- solubility change mitosis (log2) (HeLa Kyoto [1]): 0.0246
- solubility in G1/S (log2) (HeLa Kyoto [2]): 0.176

Substance: MAARPITLGIDLGTTSVKAALLRAAPDDPSGFAVLASCARAARAEAAVESAVAGPQGREQDVSRILQALHECLAALPRPQLRSVVGIGVSGQMHGVVFWKTGQGCEWTEGGITPVFEPRAVSHLVTWQDGRCSSEFLASLPQPKSHLSVATGFGCATIFWLLKYRPEFLKSYDAAGTIHDYVVAMLCGLPRPLMSDQNAASWGYFNTQSQSWNVETLRSSGFPVHLLPDIAEPGSVAGRTSHMWFEIPKGTQVGVALGDLQASVYSCMAQRTDAVLNISTSVQLAASMPSGFQPAQTPDPTAPVAYFPYFNRTYLGVAASLNGGNVLATFVHMLVQWMADLGLEVEESTVYSRMIQAAVQQRDTHLTITPTVLGERHLPDQLASVTRISSSDLSLGHVTRALCRGIVQNLHSMLPIQQLQEWGVERVMGSGSALSRNDVLKQEVQRAFPLPMSFGQDVDAAVGAALVMLRRHLNQKES [SHPK]
- solubility change mitosis (log2) (HeLa Kyoto [1]): -0.108
- solubility in G1/S (log2) (HeLa Kyoto [2]): -0.0429

Substance: MGKVLSKIFGNKEMRILMLGLDAAGKTTILYKLKLGQSVTTIPTVGFNVETVTYKNVKFNVWDVGGQDKIRPLWRHYYTGTQGLIFVVDCADRDRIDEARQELHRIINDREMRDAIILIFANKQDLPDAMKPHEIQEKLGLTRIRDRNWYVQPSCATSGDGLYEGLTWLTSNYKS [ARF6]
- solubility change mitosis (log2) (HeLa Kyoto [1]): 0.0647
- solubility in G1/S (log2) (HeLa Kyoto [2]): 0.0719

Substance: MDPGWGQRDVGWAALLILFAASLLTVFAWLLQYARGLWLARARGDRGPGPALAGEPAGSLRELGVWRSLLRLRATRAGAAEEPGVRGLLASLFAFKSFRENWQRAWVRALNEQACRNGSSIQIAFEEVPQLPPRASISHVTCVDQSEHTMVLRCQLSAEEVRFPVSVTQQSPAAVSMETYHVTLTLPPTQLEVNLEEIPGEGLLISWAFTDRPDLSLTVLPKLQARERGEEQVELSTIEELIKDAIVSTQPAMMVNLRACSAPGGLVPSEKPPMMPQAQPAIPRPNRLFLRQLRASHLGNELEGTEELCCVAELDNPMQQKWTKPARAGSEVEWTEDLALDLGPQSRELTLKVLRSSSCGDTELLGQATLPVGSPSRPLSRRQLCPLTPGPGKALGPAATMAVELHYEEGSPRNLGTPTSSTPRPSITPTKKIELDRTIMPDGTIVTTVTTVQSRPRIDGKLDSPSRSPSKVEVTEKTTTVLSESSGPSNTSHSSSRDSHLSNGLDPVAETAIRQLTEPSGRVAKKTPTKRSTLIISGVSKVPIAQDELALSLGYAASLEASVQDDAGTSGGPSSPPSDPPAMSPGPLDALSSPTSVQEADETTRSDISERPSVDDIESETGSTGALETRSLKDHKVSFLRSGTKLIFRRRPRQKEAGLSQSHDDLSNATATPSVRKKAGSFSRRLIKRFSFKSKPKANGNPSPQL [C2CD2L]
- solubility change mitosis (log2) (HeLa Kyoto [1]): -0.0722
- solubility in G1/S (log2) (HeLa Kyoto [2]): -0.0395

Substance: MIPLEKPGSGGSSPGATSGSGRAGRGLSGPCRPPPPPQARGLLTEIRAVVRTEPFQDGYSLCPGRELGRGKFAVVRKCIKKDSGKEFAAKFMRKRRKGQDCRMEIIHEIAVLELAQDNPWVINLHEVYETASEMILVLEYAAGGEIFDQCVADREEAFKEKDVQRLMRQILEGVHFLHTRDVVHLDLKPQNILLTSESPLGDIKIVDFGLSRILKNSEELREIMGTPEYVAPEILSYDPISMATDMWSIGVLTYVMLTGISPFLGNDKQETFLNISQMNLSYSEEEFDVLSESAVDFIRTLLVKKPEDRATAEECLKHPWLTQSSIQEPSFRMEKALEEANALQEGHSVPEINSDTDKSETKESIVTEELIVVTSYTLGQCRQSEKEKMEQKAISKRFKFEEPLLQEIPGEFIY [STK17A]
- solubility change mitosis (log2) (HeLa Kyoto [1]): -0.0546
- solubility in G1/S (log2) (HeLa Kyoto [2]): 0.0848

Substance: MAPGSRGERSSFRSRRGPGVPSPQPDVTMLSRLLKEHQAKQNERKELQEKRRREAITAATCLTEALVDHLNVGVAQAYMNQRKLDHEVKTLQVQAAQFAKQTGQWIGMVENFNQALKEIGDVENWARSIELDMRTIATALEYVYKGQLQSAPS [BLOC1S1]
- solubility change mitosis (log2) (HeLa Kyoto [1]): 0.133
- solubility in G1/S (log2) (HeLa Kyoto [2]): 0.51

Substance: MSAQTSPAEKGLNPGLMCQESYACSGTDEAIFECDECCSLQCLRCEEELHRQERLRNHERIRLKPGHVPYCDLCKGLSGHLPGVRQRAIVRCQTCKINLCLECQKRTHSGGNKRRHPVTVYNVSNLQESLEAEEMDEETKRKKMTEKVVSFLLVDENEEIQVTNEEDFIRKLDCKPDQHLKVVSIFGNTGDGKSHTLNHTFFYGREVFKTSPTQESCTVGVWAAYDPVHKVAVIDTEGLLGATVNLSQRTRLLLKVLAISDLVIYRTHADRLHNDLFKFLGDASEAYLKHFTKELKATTARCGLDVPLSTLGPAVIIFHETVHTQLLGSDHPSEVPEKLIQDRFRKLGRFPEAFSSIHYKGTRTYNPPTDFSGLRRALEQLLENNTTRSPRHPGVIFKALKALSDRFSGEIPDDQMAHSSFFPDEYFTCSSLCLSCGVGCKKSMNHGKEGVPHEAKSRCRYSHQYDNRVYTCKACYERGEEVSVVPKTSASTDSPWMGLAKYAWSGYVIECPNCGVVYRSRQYWFGNQDPVDTVVRTEIVHVWPGTDGFLKDNNNAAQRLLDGMNFMAQSVSELSLGPTKAVTSWLTDQIAPAYWRPNSQILSCNKCATSFKDNDTKHHCRACGEGFCDSCSSKTRPVPERGWGPAPVRVCDNCYEARNVQLAVTEAQVDDEGGTLIARKVGEAVQNTLGAVVTAIDIPLGLVKDAARPAYWVPDHEILHCHNCRKEFSIKLSKHHCRACGQGFCDECSHDRRAVPSRGWDHPVRVCFNCNKKPGDL [ZFYVE1]
- solubility change mitosis (log2) (HeLa Kyoto [1]): -0.0704
- solubility in G1/S (log2) (HeLa Kyoto [2]): -0.282

Substance: MDSPGYNCFVDKDKMDAAIQDLGPKELSCTELQELKQLARQGYWAQSHALRGKVYQRLIRDIPCRTVTPDASVYSDIVGKIVGKHSSSCLPLPEFVDNTQVPSYCLNARGEGAVRKILLCLANQFPDISFCPALPAVVALLLHYSIDEAECFEKACRILACNDPGRRLIDQSFLAFESSCMTFGDLVNKYCQAAHKLMVAVSEDVLQVYADWQRWLFGELPLCYFARVFDVFLVEGYKVLYRVALAILKFFHKVRAGQPLESDSVKQDIRTFVRDIAKTVSPEKLLEKAFAIRLFSRKEIQLLQMANEKALKQKGITVKQKSVSLSKRQFVHLAVHAENFRSEIVSVREMRDIWSWVPERFALCQPLLLFSSLQHGYSLARFYFQCEGHEPTLLLIKTTQKEVCGAYLSTDWSERNKFGGKLGFFGTGECFVFRLQPEVQRYEWVVIKHPELTKPPPLMAAEPTAPLSHSASSDPADRLSPFLAARHFNLPSKTESMFMAGGSDCLIVGGGGGQALYIDGDLNRGRTSHCDTFNNQPLCSENFLIAAVEAWGFQDPDTQ [TBC1D24]
- solubility change mitosis (log2) (HeLa Kyoto [1]): -0.16
- solubility in G1/S (log2) (HeLa Kyoto [2]): -0.273

Substance: MQVPQDGEDLAGQPWYHGLLSRQKAEALLQQNGDFLVRASGSRGGNPVISCRWRGSALHFEVFRVALRPRPGRPTALFQLEDEQFPSIPALVHSYMTGRRPLSQATGAVVSRPVTWQGPLRRSFSEDTLMDGPARIEPLRARKWSNSQPADLAHMGRSREDPAGMEASTMPISALPRTSSDPVLLKAPAPLGTVADSLRASDGQLQAKAPTKPPRTPSFELPDASERPPTYCELVPRVPSVQGTSPSQSCPEPEAPWWEAEEDEEEENRCFTRPQAEISFCPHDAPSCLLGPQNRPLEPQVLHTLRGLFLEHHPGSTALHLLLVDCQATGLLGVTRDQRGNMGVSSGLELLTLPHGHHLRLELLERHQTLALAGALAVLGCSGPLEERAAALRGLVELALALRPGAAGDLPGLAAVMGALLMPQVSRLEHTWRQLRRSHTEAALAFEQELKPLMRALDEGAGPCDPGEVALPHVAPMVRLLEGEEVAGPLDESCERLLRTLHGARHMVRDAPKFRKVAAQRLRGFRPNPELREALTTGFVRRLLWGSRGAGAPRAERFEKFQRVLGVLSQRLEPDR [SH2D3A]
- solubility change mitosis (log2) (HeLa Kyoto [1]): 0.0323
- solubility in G1/S (log2) (HeLa Kyoto [2]): 0.386

Substance: MTKKKRENLGVALEIDGLEEKLSQCRRDLEAVNSRLHSRELSPEARRSLEKEKNSLMNKASNYEKELKFLRQENRKNMLLSVAIFILLTLVYAYWTM [CCDC167]
- solubility change mitosis (log2) (HeLa Kyoto [1]): 0.231
- solubility in G1/S (log2) (HeLa Kyoto [2]): 0.839
